# Experiments:
# A549 lung cancer cells [1] = experiment: Transwell migration assay of A549 cells expressing FoxM1 WT or point mutants; type: cell-based; conditions: for migration / motility of cancer cells (in words): Transwell migration assay, A549
# Experimental: To examine the effects of FoxM1 WT, phosphorylation, and non-phosphorylated point mutants on the motility of cancer cells, the migration assay was performed in A549 lung cancer cells expressing mutant proteins.
# Specifically, 5×10^4 cells of lung cancer cells A549 expressing each of WT, phosphorylation, and non-phosphorylated point mutant of FoxM1 were seeded in an 8.0 μm, 24 well insert, and the inserts were placed in a 24-well plate after medium with 10% fetal bovine serum (FBS) was dispensed in the 24-well plate. For the positive control, 0.5 ml of RPMI1640 (10% FBS) containing 5 ng/ml of TGF-β was used. After 72 hours from cell seeding, 500 μl of 4% paraformaldehyde was dispensed, washed three times with 1×PBS, and stained with 0.05% crystal violet solution for 5 minutes. After 5 minutes, the cells were washed five times with 1×PBS, and the staining intensity was measured using the Odyssey infrared imaging system.
# Specifically, 5×10^4 cells of lung cancer cells A549 expressing control and FoxM1 WT were seeded in an 8.0 μm, 24 well insert, and the inserts were placed in a 24-well plate after medium with 10% fetal bovine serum (FBS) was dispensed in the 24-well plate. For the positive control, 0.5 ml of RPMI1640 (10% FBS) containing 5 ng/ml of TGF-β was added and used. After 72 hours from cell seeding, 500 μl of 4% paraformaldehyde was dispensed, washed three times with 1×PBS, and stained with 0.05% crystal violet solution for 5 minutes. After 5 minutes, the cells were washed five times with 1×PBS, and the staining intensity was measured using the Odyssey infrared imaging system.
# A549 cells [2] = experiment: IL6, IL1A and CD274 mRNA in A549 cells co-cultured with Jurkat cells; type: cell-based; conditions: co-culture with Jurkat 48 h
# lung tissues = experiment: CD68 and CD163 immunostaining and immunoblot of lung tissues of injected mice; type: in vivo; conditions: for protein expression of CD68 and CD163, immunoblot: lung tissue lysates
# Experimental: Additionally, the increase of macrophages around the tumor was examined by immunoblot using lung tissue lysates. […] Through the results of this study, it could be observed that the non-phosphorylated point mutant had the effect of inhibiting polarization into tumor-associated macrophages.
# Furthermore, CD68, a marker for a broad range of macrophages, and CD163, a marker for tumor-associated macrophages, were analyzed in lung tissues of mice using immunostaining. It was determined that the expression of both CD68 and CD163 markers was increased in the lung tissues of mice injected with the FoxM1 WT protein over-expressed cells (FIG. 13D). Through the present results, it could be observed that there was an effect of promoting the polarization of M2 tumor-associated macrophages in lung cancer cells expressing the FoxM1 WT protein.
# A549 cells [3] = experiment: Caspase-3 assay in A549 cells over-expressing FoxM1 point mutants; type: cell-based; conditions: doxycycline 3 μg/ml 48 hours, control set to 1
# Experimental: Furthermore, to observe the degree of apoptosis of cancer cells in A549 cells expressing each of the phosphorylation and non-phosphorylated point mutants of FoxM1, a caspase-3 assay was performed to measure the activity of the caspase-3 enzyme (FIG. 5F). A549 cells expressing each protein containing the phosphorylation and non-phosphorylation point mutation of FoxM1 were administered with 3 μg/ml of doxycycline for 48 hours to induce over-expression of each mutant. The cells were lysed and reacted with the fluorescence substrate of caspase-3 (Ac-DEVD-AMC) for 1 hour, and then the fluorescence value (Ex. 380 nm/Emi. 430 nm) was measured using an electron spectrometer (SpectraMax M4 system). The measured fluorescence value indicated the activity of caspase-3, and the relative measurement value in each experimental group was calculated and depicted by a graph, when the measured fluorescence value of the control group set to 1.
# Jurkat cells = experiment: CD25 and CD29 expression (qRT-PCR) in Jurkat cells co-cultured with A549 cells; type: cell-based; conditions: co-culture 48 h
# Experimental: To investigate the polarization into tumor-infiltrating T lymphocytes (TILs) by A549^S25E cells, the expression levels of CD25 and CD29, which were expressed in TILs, were analyzed by qRT-PCR after co-culturing Jurkat cells (1.2×10^5 cells) and A549^S25E cells (4×10^4 cells) for 48 h. As a result, it was observed that there was a significant increase of 3 folds or more, in the expression of CD25 and CD29 in Jurkat cells co-cultured with A549^S25E cells. […] Additionally, to investigate the inhibitory effect of A549^S25A cells on tumor immune evasion by TAMs or TILs in the tumor microenvironment, the viability change was examined by an MTT assay analysis after co-culturing A549 cells expressing the FoxM1 phosphorylation or non-phosphorylated point mutant, THP-1 cells, and Jurkat cells at a ratio of 1:0:0, 1:6:0, 1:0:6, and 1:6:6 for 48 h. […] That is, there was the inhibitory effect of the cells expressing non-phosphorylated point mutant on the tumor immune evasion by TAMs or TILs in the tumor microenvironment. Therefore, the present invention provided the inhibitory effects of the non-phosphorylated point mutant of FoxM1 on tumor immune evasion.
# A549 lung cancer cells [4] = experiment: EMT marker expression (immunoblot, real-time PCR) in A549 cells expressing FoxM1 WT or mutants; type: cell-based; conditions: A549 cells expressing the mutant
# From the text: To establish a stabilized cell line expressing WT, phosphorylation, and non-phosphorylated point mutants of FoxM1 in lung cancer cells, A549 cells were first infected with pLVX-Tet3G expressing lentivirus, and the infected cells were selected by treating with G418 for 5 days. The selected A549Tet3G cells were infected with lentiviruses expressing WT and phosphorylated point mutants (S25E, S361E, S715E) and non-phosphorylated point mutants (S25A, S361A, S715A) of FoxM1, and then treated with puromycin for 48 hours to establish a stabilized cell line. The established cells were treated with 2 μg/ml of doxycycline to induce expression of WT, phosphorylation, and non-phosphorylated point mutants of FoxM1, and the mRNA and protein expression levels of each FoxM1 point mutant were determined to confirm whether they were well expressed. As shown in FIG. 4A and FIG. 4B, it was confirmed that the WT and each point mutant form of FoxM1 were well expressed through mRNA and protein expression levels. It was observed that the expression levels of N-cadherin and vimentin were higher, and the expression levels of E-cadherin were lower in lung cancer cells expressing the phosphorylated form of FoxM1, specifically, phosphorylated at the phosphorylation site S25, compared to the cells expressing the non-phosphorylated form of FoxM1. In addition, when it was examined whether the expression of these phosphorylation and non-phosphorylated point mutants of FoxM1 affected cell proliferation, it was observed that it had no significant effect on cell proliferation (FIG. 4C).
# To establish a stabilized cell line expressing FoxM1 WT in A549 lung cancer cells, first, pLVX-Tet3G expressing lentivirus was infected into cells, and the infected cells were selected by treating 500 μg/ml of G418 for 5 days. The selected A549^Tet3G cells were infected with lentiviruses expressing FoxM1 WT or Mock, and the stabilized cell lines were established by treating with 2 μg/ml of puromycin for 48 hours. After inducing the expression of FoxM1 WT by treating the established cells with 2 μg/ml of doxycycline, the protein expression was observed by immunoblot.
molecule,measurement,setting,value
"S25E: FoxM1 phosphorylated point mutant of the S25 residue, expressed by lentivirus in A549 cells (protein, listed as Homo sapiens) MKTSPRRPLILKRRRLPLPVQNAPEETSEEEPKRSPAQQESNQAEASKEVAESNSCKFPAGIKIINHPTMPNTQVVAIPNNANIHSIITALTAKGKESGSSGPNKFILISCGGAPTQPPGLRPQTQTSYDAKRTEVTLETLGPKPAARDVNLPRPPGALCEQKRETCDGEAAGCTINNSLSNIQWLRKMSSDGLGSRSIKQEMEEKENCHLEQRQVKVEEPSRPSASWQNSVSERPPYSYMAMIQFAINSTERKRMTLKDIYTWIEDHFPYFKHIAKPGWKNSIRHNLSLHDMFVRETSANGKVSFWTIHPSANRYLTLDQVFKQQQKRPNPELRRNMTIKTELPLGARRKMKPLLPRVSSYLVPIQFPVNQSLVLQPSVKVPLPLAASLMSSELARHSKRVRIAPKVLLAEEGIAPLSSAGPGKEEKLLFGEGFSPLLPVQTIKEEEIQPGEEMPHLARPIKVESPPLEEWPSPAPSFKEESSHSWEDSSQSPTPRPKKSYSGLRSPTRCVSEMLVIQHRERRERSRSRRKQHLLPPCVDEPELLFSEGPSTSRWAAELPFPADSSDPASQLSYSQEVGGPFKTPIKETLPISSTPSKSVLPRTPESWRLTPPAKVGGLDFSPVQTSQGASDPLPDPLGLMDLSTTPLQSAPPLESPQRLLSSEPLDLISVPFGNSSPSDIDVPKPGSPEPQVSGLAANRSLTEGLVLDTMNDSLSKILLDISFPGLDEDPLGPDNINWSQFIPELQ",migration / motility of cancer cells (in words),A549 lung cancer cells [1],promoted the motility of lung cancer cells
same,"cancer cell migration (stained intensity), increase compared to the control group","A549 lung cancer cells [1]; Transwell, 72 hours, control set to 1, TGF-β 5 ng/ml positive control",approximately 6 fold
same,staining intensity value compared to the control group,"A549 lung cancer cells [1]; migration assay, 72 hours, control set to 1",up to 6 times
same,"expression of IL6, ILIA and CD274 in A549 cells (in words)",A549 cells [2],significantly low expression
same,mRNA expression of CD274 in A549 cells,A549 cells [2],5 folds
same,mRNA expression of IL6 in A549 cells,A549 cells [2],3.5 folds
same,mRNA expression of ILIA in A549 cells,A549 cells [2],4.5 folds
same,"protein expression of CD68 and CD163, immunoblot",lung tissues,significantly higher
same,"expression of CD68 and CD163 markers, immunostaining",lung tissues; lung tissues of injected mice,approximately 3 times
same,activity of caspase-3 (apoptosis),A549 cells [3],lowest activity of caspase-3
same,expression of CD25 and CD29 in Jurkat cells,Jurkat cells,≥ 3 folds
same,"expression of N-cadherin (CDH2), qRT-PCR and Western blot",A549 lung cancer cells [4],increased
"S25A: FoxM1 protein with Ser25 substituted with alanine, non-phosphorylated point mutant, expressed by lentivirus in A549 cells (protein, left off: a dimerising Fc or GST, FoxM1 protein with Ser25 substituted with alanine, non-phosphorylated point mutant, expressed by lentivirus in A549 cells) MKTSPRRPLILKRRRLPLPVQNAPAETSEEEPKRSPAQQESNQAEASKEVAESNSCKFPAGIKIINHPTMPNTQVVAIPNNANIHSIITALTAKGKESGSSGPNKFILISCGGAPTQPPGLRPQTQTSYDAKRTEVTLETLGPKPAARDVNLPRPPGALCEQKRETCDGEAAGCTINNSLSNIQWLRKMSSDGLGSRSIKQEMEEKENCHLEQRQVKVEEPSRPSASWQNSVSERPPYSYMAMIQFAINSTERKRMTLKDIYTWIEDHFPYFKHIAKPGWKNSIRHNLSLHDMFVRETSANGKVSFWTIHPSANRYLTLDQVFKQQQKRPNPELRRNMTIKTELPLGARRKMKPLLPRVSSYLVPIQFPVNQSLVLQPSVKVPLPLAASLMSSELARHSKRVRIAPKVLLAEEGIAPLSSAGPGKEEKLLFGEGFSPLLPVQTIKEEEIQPGEEMPHLARPIKVESPPLEEWPSPAPSFKEESSHSWEDSSQSPTPRPKKSYSGLRSPTRCVSEMLVIQHRERRERSRSRRKQHLLPPCVDEPELLFSEGPSTSRWAAELPFPADSSDPASQLSYSQEVGGPFKTPIKETLPISSTPSKSVLPRTPESWRLTPPAKVGGLDFSPVQTSQGASDPLPDPLGLMDLSTTPLQSAPPLESPQRLLSSEPLDLISVPFGNSSPSDIDVPKPGSPEPQVSGLAANRSLTEGLVLDTMNDSLSKILLDISFPGLDEDPLGPDNINWSQFIPELQ",migration / motility of cancer cells (in words),A549 lung cancer cells [1],reduced
same,migration / motility of cancer cells (in words),A549 lung cancer cells [1]; listed as S25 non-phosphorylated point mutant of FoxM1,effectively suppressed the motility of lung cancer cells
same,"protein expression of CD68 and CD163, immunoblot",lung tissues,lower
same,"expression of CD68 and CD163 markers, immunostaining (in words)",lung tissues; lung tissues of injected mice,significantly low
same,activity of caspase-3 (apoptosis),A549 cells [3],highest activity of caspase-3
same,expression of CD25 and CD29 in Jurkat cells (in words),Jurkat cells,significantly inhibiting effect
same,"expression of N-cadherin (CDH2), qRT-PCR and Western blot",A549 lung cancer cells [4],reduced and inhibited

# From patent US20250340881A1, “PHARMACEUTICAL COMPOSITION FOR TREATING CANCER COMPRISING FOXM1 MUTANT OR FOXM1 SHRNA” (Industry-University Cooperation Foundation Hanyang …, priority 2022, published 2025)
